{
  "source": "patent US20260049134A1",
  "about": "(UNIVERSITY OF FLORIDA RESEARCH FOUNDATION, published 2026)",
  "key": {"IGSF11 (VSIG3)": {"target": "T1, IGSF11 (VSIG3)", "T1 construct": "coated protein in the ELISA; also called IGSF11-Fc (R&D Systems)", "T1 chain": "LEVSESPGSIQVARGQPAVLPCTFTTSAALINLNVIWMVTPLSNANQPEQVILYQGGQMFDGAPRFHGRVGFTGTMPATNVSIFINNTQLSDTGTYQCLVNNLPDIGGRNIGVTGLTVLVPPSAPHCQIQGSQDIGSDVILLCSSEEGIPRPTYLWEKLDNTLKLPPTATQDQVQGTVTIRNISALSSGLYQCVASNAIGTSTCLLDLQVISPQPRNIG", "experiment": "ELISA on coated IGSF11-Fc, 150 ng IgG1; None 0.090", "procedure": "(§1) Recombinant purified ECDs (50-150 ng) of each putative target protein were coated, incubated with 150 ng of the indicated primary antibody, and binding was detected using a peroxidase-conjugated anti-human Fab secondary antibody. Heatmap represents averages of technical triplicates. (8B) Target validation via siRNA knockdown. H929 cells were transfected with siRNA pools targeting the putative antibody targets ICAM1, CADM1, and PTPRG. Cells were then subjected to cognate IgG binding analysis via flow cytometry. (NT, non-targeting siRNA).\n(§2) ELISA ELISA was conducted as described previously. Briefly, 50-150 ng of antigen was coated overnight in half-area 96-well plates at 4° C., blocked with 3% BSA at 37° C. for 1 h, and 150 ng of chimeric rabbit/human IgG1 was added, incubating for 2 h at 37° C. […] After incubating at 37° C. for 15 min-1 h (depending on intensity of controls), data were acquired using a SpectraMax M5 plate reader (Molecular Devices)."}, "IL13RA1": {"target": "T2, IL13RA1", "T2 construct": "coated protein in the ELISA; also called IL13RA1-Fc-His (R&D Systems)", "T2 chain": "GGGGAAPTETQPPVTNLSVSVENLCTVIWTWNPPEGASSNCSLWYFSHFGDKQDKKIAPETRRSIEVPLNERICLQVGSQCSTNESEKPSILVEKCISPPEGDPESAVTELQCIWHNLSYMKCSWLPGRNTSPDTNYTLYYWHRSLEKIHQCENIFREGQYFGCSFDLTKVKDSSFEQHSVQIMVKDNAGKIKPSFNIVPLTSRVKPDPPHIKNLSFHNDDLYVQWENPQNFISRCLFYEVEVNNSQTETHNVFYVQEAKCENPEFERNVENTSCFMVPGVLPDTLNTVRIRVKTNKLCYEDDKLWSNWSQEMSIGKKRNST", "experiment": "ELISA on coated IL13RA1-Fc-His, 150 ng IgG1; None 0.094", "procedure": "as §1, §2"}, "ANXA1": {"target": "T3, ANXA1", "T3 construct": "coated protein in the ELISA; also called ANXA1-His (R&D Systems)", "T3 chain": "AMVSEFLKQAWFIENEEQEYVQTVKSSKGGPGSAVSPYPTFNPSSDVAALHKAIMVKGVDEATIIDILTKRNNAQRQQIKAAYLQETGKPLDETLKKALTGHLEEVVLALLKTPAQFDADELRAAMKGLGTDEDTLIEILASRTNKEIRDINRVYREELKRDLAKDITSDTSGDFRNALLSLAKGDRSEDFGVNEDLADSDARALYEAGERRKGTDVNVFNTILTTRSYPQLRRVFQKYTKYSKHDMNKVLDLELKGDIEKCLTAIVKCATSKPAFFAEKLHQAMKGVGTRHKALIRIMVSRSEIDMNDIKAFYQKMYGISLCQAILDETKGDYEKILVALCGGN", "experiment": "ELISA on coated ANXA1-His", "procedure": "as §1, §2"}, "DCC": {"target": "T4, DCC", "T4 construct": "coated protein in the ELISA; also called DCC-His (R&D Systems)", "T4 chain": "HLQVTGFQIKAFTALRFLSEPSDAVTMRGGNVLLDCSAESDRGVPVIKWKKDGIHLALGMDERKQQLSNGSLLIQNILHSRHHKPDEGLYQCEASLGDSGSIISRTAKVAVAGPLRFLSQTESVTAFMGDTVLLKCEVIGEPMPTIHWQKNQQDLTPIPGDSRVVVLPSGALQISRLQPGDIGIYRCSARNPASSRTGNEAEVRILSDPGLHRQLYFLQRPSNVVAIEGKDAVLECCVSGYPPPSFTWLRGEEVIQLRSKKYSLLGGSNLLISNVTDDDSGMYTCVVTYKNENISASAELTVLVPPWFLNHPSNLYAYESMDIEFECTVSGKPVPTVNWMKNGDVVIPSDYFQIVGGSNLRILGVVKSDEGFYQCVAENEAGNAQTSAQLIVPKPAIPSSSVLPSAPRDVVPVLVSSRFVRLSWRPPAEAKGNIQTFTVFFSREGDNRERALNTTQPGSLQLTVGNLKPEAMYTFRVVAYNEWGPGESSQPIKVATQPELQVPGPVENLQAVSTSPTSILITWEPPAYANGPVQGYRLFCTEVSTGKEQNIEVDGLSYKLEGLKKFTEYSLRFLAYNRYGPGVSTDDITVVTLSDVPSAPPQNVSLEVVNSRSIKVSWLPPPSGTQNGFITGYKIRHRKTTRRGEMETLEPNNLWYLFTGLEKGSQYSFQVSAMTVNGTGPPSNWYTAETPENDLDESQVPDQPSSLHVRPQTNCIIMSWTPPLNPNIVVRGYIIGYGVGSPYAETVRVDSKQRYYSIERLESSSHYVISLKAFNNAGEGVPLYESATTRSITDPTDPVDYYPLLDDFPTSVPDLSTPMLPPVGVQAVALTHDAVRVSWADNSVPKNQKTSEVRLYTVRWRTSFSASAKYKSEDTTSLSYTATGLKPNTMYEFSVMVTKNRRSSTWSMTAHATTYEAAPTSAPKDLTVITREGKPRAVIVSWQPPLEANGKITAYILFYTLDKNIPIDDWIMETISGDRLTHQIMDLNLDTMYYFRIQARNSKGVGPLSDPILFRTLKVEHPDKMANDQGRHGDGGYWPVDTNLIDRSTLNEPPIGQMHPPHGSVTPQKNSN", "experiment": "ELISA on coated DCC-His", "procedure": "as §1, §2"}, "PTP4A3 (PRL-3)": {"target": "T5, PTP4A3 (PRL-3)", "T5 construct": "coated protein in the ELISA; also called His-PTP4A3 (R&D Systems)", "T5 sequence (chain, as listed by the source limits assumed)": "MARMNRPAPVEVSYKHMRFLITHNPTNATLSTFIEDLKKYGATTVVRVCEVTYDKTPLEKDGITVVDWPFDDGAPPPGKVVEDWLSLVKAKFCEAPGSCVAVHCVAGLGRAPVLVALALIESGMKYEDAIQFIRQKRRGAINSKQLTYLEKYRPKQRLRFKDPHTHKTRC", "experiment": "ELISA on coated His-PTP4A3, 150 ng IgG1; None 0.085", "procedure": "as §1, §2"}},
  "data": [
    {"binder": "HW-81 chimeric rabbit-human IgG1 LA/LA/PG (antibody, V domains shown, Fc-silenced (L234A/L235A/P329G) IgG1, lambda; Alexa Fluor 647-labeled in single-step flow cytometry; Cluster C-45) VH: QKQLVESGGGLVTPGGTLTLTCTVSGFSLSSNGVSWVRQAPGKGLEYIGLIRSIGSTYYATWAKGRFTISKTSTTVDLKITSPTTEDTATYFCARGGYRNGFKLWGPGTLVTVSS VL: QPVLTQSPSVSAALGASAKLTCTLSSAHKTYYIEWYQQQHPGKAPRYLMQLQSDGSYTKGTGVPDRFSGSSSGADRYLIISSVQAEDEADYICGVIDSAVYVFGGGTQLTVTG", "values": [
      {"measurement": "ELISA Absorbance (405 nm-570 nm)", "setting": "IGSF11 (VSIG3)", "value": 0.065},
      {"measurement": "ELISA Absorbance (405 nm-570 nm)", "setting": "IL13RA1", "value": 0.099},
      {"measurement": "binding result", "setting": "ANXA1", "value": "no binding (tested: 150 ng IgG1 per well)"},
      {"measurement": "binding result", "setting": "DCC", "value": "no binding (tested: 150 ng IgG1 per well)"},
      {"measurement": "ELISA Absorbance (405 nm-570 nm)", "setting": "PTP4A3 (PRL-3)", "value": 0.08}
    ]},
    {"binder": "HW-97 chimeric rabbit-human IgG1 LA/LA/PG (antibody, V domains shown, Fc-silenced (L234A/L235A/P329G) IgG1, lambda; Alexa Fluor 647-labeled in single-step flow cytometry; Prototype of cluster C-97) VH: QKQLVESGGRLVTPGTPLTLTCTVTGIDLSSHGMSWVRQAPGKGLEWIGVIYPSGSTWYASWARGRFTISKTSTTVDLKMTSLTTEDTATHFCARGDVGGADNNIWGPGTLVTVSS VL: SFVLTQPASVQVDLGQTVSLTCTAETLSRSYASWYQQKPGQAPVLLIYRDTSRPSGVPDRFSGSSSGNTATLTISGAQAGDEADYYCATSDGSGSSYQYVFGGGTQLTVTG", "values": [
      {"measurement": "ELISA Absorbance (405 nm-570 nm)", "setting": "IGSF11 (VSIG3)", "value": 0.078},
      {"measurement": "ELISA Absorbance (405 nm-570 nm)", "setting": "IL13RA1", "value": 0.08},
      {"measurement": "binding result", "setting": "ANXA1", "value": "no binding (tested: 150 ng IgG1 per well)"},
      {"measurement": "binding result", "setting": "DCC", "value": "no binding (tested: 150 ng IgG1 per well)"},
      {"measurement": "ELISA Absorbance (405 nm-570 nm)", "setting": "PTP4A3 (PRL-3)", "value": 0.065}
    ]},
    {"binder": "HW-113 chimeric rabbit-human IgG1 LA/LA/PG (antibody, V domains shown, Fc-silenced (L234A/L235A/P329G) IgG1, lambda; Alexa Fluor 647-labeled in single-step flow cytometry) VH: QKQLVESGGGLVQPGGSLTLTCTVSGFSLNKYYMGWFRQAPGKGLEWIGVISRSGDTYYSSWAKGRFTISKASTTVDLRITSPTTEDTATYFCARDASSPGFHGDRLDLWGQGTLVTVSS VL: SFVLTQPASVQVNLGQTVSLTCTADTLSRSYASWYQQKPGQAPVLLIYRDTSRPSGVPDRFSGSSSGNTATLTISGAQAGDEADYYCATSDGIGSNYLWVFGGGTQLTVTG", "values": [
      {"measurement": "ELISA Absorbance (405 nm-570 nm)", "setting": "IGSF11 (VSIG3)", "value": 0.075},
      {"measurement": "ELISA Absorbance (405 nm-570 nm)", "setting": "IL13RA1", "value": 0.086},
      {"measurement": "binding result", "setting": "ANXA1", "value": "no binding (tested: 150 ng IgG1 per well)"},
      {"measurement": "binding result", "setting": "DCC", "value": "no binding (tested: 150 ng IgG1 per well)"},
      {"measurement": "ELISA Absorbance (405 nm-570 nm)", "setting": "PTP4A3 (PRL-3)", "value": 0.078}
    ]},
    {"binder": "HW-101 chimeric rabbit-human IgG1 LA/LA/PG (antibody, V domains shown, Fc-silenced (L234A/L235A/P329G) IgG1, lambda; Alexa Fluor 647-labeled in single-step flow cytometry; Cluster C-97) VH: QEQLVESGGRLVTPGTPLTLTCKASGFSLGKYDMSWVRQAPGKGLEWIGTIYAGSGSTWYASWAKGRFTISKTSTTVDLKMTSLTTEDTATYFCARDFLGVNSIWGPGTLVTISS VL: SFVLTQPASVQVNLGQTVSLTCTADTLSRSYASWYQQKPDQAPVLLIHRDTSRPSGVPDRFSGSNSGNTATLTISGAQAGDEADYYCATSDGSGSNFHFVFGGGTQLTVTG", "values": [
      {"measurement": "ELISA Absorbance (405 nm-570 nm)", "setting": "IGSF11 (VSIG3)", "value": 0.066},
      {"measurement": "ELISA Absorbance (405 nm-570 nm)", "setting": "IL13RA1", "value": 0.067},
      {"measurement": "binding result", "setting": "ANXA1", "value": "no binding (tested: 150 ng IgG1 per well)"},
      {"measurement": "binding result", "setting": "DCC", "value": "no binding (tested: 150 ng IgG1 per well)"},
      {"measurement": "ELISA Absorbance (405 nm-570 nm)", "setting": "PTP4A3 (PRL-3)", "value": 0.065}
    ]},
    {"binder": "HW-56 chimeric rabbit-human IgG1 LA/LA/PG (antibody, V domains shown, Fc-silenced (L234A/L235A/P329G) IgG1, kappa; Alexa Fluor 647-labeled in single-step flow cytometry; Cluster C-45) VH: QSVKESEGGLFKPTDTLTLTCTASGFTVSTNAVTWVRQAPGNGLEYIGTIGRSGSAYFASWAKRRSTLTRDINLNTVTLKMTSLTAADTATYFCVRGSPGYRTAISIWGPGTLVTISS VL: AVMTQTPSSTSAAVEGTVTINCQASQSISNRLSWFQQKPGQPPKLLIYQASTLASGVPSRFKGSGSGTEFTLTISGVQREDAATYYCLGSYSSSDASFGGGTKLEIKR", "values": [
      {"measurement": "ELISA Absorbance (405 nm-570 nm)", "setting": "IGSF11 (VSIG3)", "value": 0.076},
      {"measurement": "ELISA Absorbance (405 nm-570 nm)", "setting": "IL13RA1", "value": 0.16},
      {"measurement": "binding result", "setting": "ANXA1", "value": "no binding (tested: 150 ng IgG1 per well)"},
      {"measurement": "binding result", "setting": "DCC", "value": "no binding (tested: 150 ng IgG1 per well)"},
      {"measurement": "ELISA Absorbance (405 nm-570 nm)", "setting": "PTP4A3 (PRL-3)", "value": 0.104}
    ]}
  ]
}
